Experimental data taken from US20080213265A1 (INSTITUTE FOR RESEARCH IN BIOMEDICINE, published 2008).

B1: human monoclonal antibody 1F11 (antibody, V domains shown)
VH: QVQLVESGGGVVQPGRSVRLSCVASGFTFSSYAMHWVRQAPGKGLEWVSLISFDGDNKYYADSVRGRFTISRDSSQKTLFLQMNSLRVEDTAIYYCAREELVGLMPPYYNYGLDVWGQGTTVTVSS
VL: QSVLTQPPSVSAAPGQKVTISCSGSSSNIGNNFVSWYQQLPGTAPKLLIYDNDRRPSGIPDRFSGSKSDTSATLVITGLQTGDEADYYCETWDGSLNPAVVFGGGTRLTVL
notes: Human IgG from an EBV-immortalised B cell clone
B2: human monoclonal antibody 5A2 (antibody, V domains shown)
VH: QVQLVQSGAEVRKPGSSVKVSCKASGGTFSSYVIHWVRQAPGQGLEWMGGIIPIFNTANYAQKVQGRVTITADESTSTAYMELSSLRSEDTAIYYCARDFLSGPMEMPGGYYGLDVWGQGTTVTVSS
VL: not shown
notes: Human IgG from an immortalised B cell clone
B3: human monoclonal antibody 2F4 (antibody, V domains shown)
VH: QVQLVESGGGVVQPGRSLRLSCAASGFSFNTYGMHWVRQAPGKGLEWVAVIWDDGSKMYHADSVKGRFTISRDNSKNTLYLQMNSLRAEDTAVYYCARDEGAIMLHAMTDYGLDVWGQGTTVTV
VL: SYELTQPPSVSVSPGQTATITCSGDNLGDEFACWYQQKPGQSPVLVIYQDSKRPSGIPERFSGSSSGNTATLTIRGTQAMDEADYYCQAWDSSTAHYVFGTGTKVTVL
notes: as for B2

target: T1, HA-tagged UL128Δ1-27 hCMV protein expressed in HEK293T cells (human cytomegalovirus (hCMV), UniProt P16837 28-171); assay: FACS staining of fixed, permeabilized transfected HEK293T cells
T1 construct: mature; not shown: hemagglutinin (HA) tag
T1 sequence: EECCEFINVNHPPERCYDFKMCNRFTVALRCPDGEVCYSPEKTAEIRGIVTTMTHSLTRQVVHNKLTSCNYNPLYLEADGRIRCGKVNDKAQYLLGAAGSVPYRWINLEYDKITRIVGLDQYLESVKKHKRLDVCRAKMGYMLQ

Binder | binding result
B1 | no binding
B2 | no binding
B3 | no binding

target: T2, HA-tagged UL130Δ1-25 hCMV protein expressed alone in HEK293T cells (human cytomegalovirus (hCMV), UniProt P16772 26-214); assay: as above
T2 construct: mature; not shown: hemagglutinin (HA) tag

Binder | binding result
B1 | no binding
B2 | no binding
B3 | no binding

target: UL130/UL131A of a clinical hCMV isolate (virus used in the neutralisation assay) (human cytomegalovirus (hCMV), UniProt P16772 26-214); assay: cell-based or functional assay

Binder | 50% neutralisation (µg/ml), Endothelial cells [µg/mL] | 50% neutralisation (µg/ml), Fibroblasts [µg/mL]
B1 | 0.001 | > 2
B2 | 0.002 | > 2
B3 | 0.003 | > 2
